Reference: US8409833B2 (Hokko Chemical Industry Co., Ltd., priority 2003, dated 2013)

Assays:
Type in all cases: biochemical
[1] = Optimum pH of scyllo-inositol dehydrogenase; conditions: 200 mM phosphate buffer (pH 5.0 to 9.0); 90% or more of the maximum activity
Experimental: The optimum pH can be confirmed by: mixing 5 μl of a reaction solution (200 mM […] of pH 5.0 to 9.0 containing 2% of NADPH, and 1% of scyllo-inosose) and 5 μl of an enzyme solution; allowing the mixture to react at 36° C. for 30 minutes; adding 500 μl of water immediately after the completion of the reaction; determining the absorbance at 340 nm; and determining a decrease in the absorbance at 340 nm with respect to a blank value of a test solution containing water instead of the enzyme solution. The term “optimum pH” means a pH at which the enzyme has 90% or more of the maximum activity. The enzyme of the present invention can be divided depending on, for example, a range of the optimum pH into groups each having: an optimum pH in an acidic region (optimum pH is pH of 5.5 to 6.5); an optimum pH in a neutral region (optimum pH is pH of 6.5 to 7.5 or 6.5 to 8.5); and an optimum pH in an alkaline region (optimum pH is pH of 7.0 to 8.5 or 7.5 to 9.0).
The optimum pH of the enzymes of the present invention was determined by: mixing 5 μl of a reaction solution (200 mM phosphate buffer (pH 5.0 to 9.0), 2% of NADPH, and 1% of scyllo-inosose) with 5 μl of an enzyme solution; and allowing the mixture to react at 36° C. for 30 min. After the reaction, 500 μl of water was immediately added thereto, and the absorbance at 340 nm was measured. From the blank value of a test solution prepared by using water instead of the enzyme solution, the decrease in the absorbance at 340 nm was measured. The enzyme solution was diluted as required.

[2] = Effects of heavy metal on scyllo-inositol dehydrogenase; conditions: 2 mM heavy metal in reaction solution, no addition group = 100%
Experimental: Effects by the heavy metals can be confirmed by: mixing 5 μl of a reaction solution (200 mM Tris buffer of pH 8.0 containing 2% of NADPH, 1% of scyllo-inosose, and 2 mM metal salt) and 5 μl of an enzyme solution; allowing the mixture to react at 36° C. for 30 minutes; adding 500 μl of water immediately after the completion of the reaction; determining the absorbance at 340 nm; and determining a decrease in the absorbance at 340 nm with respect to a blank value of a test solution containing water instead of the enzyme solution. The term “activated” means the case where the enzymatic activity of a fraction added with 1 mM of a heavy metal is 105% or more, preferably 120% or more, with respect to the enzymatic activity of a fraction added with no heavy metal as 100%. On the other hand, the term “inhibited” means the case where the enzymatic activity of the fraction added with 1 mM of a heavy metal is 95% or less, preferably 70% or less, with respect to the enzymatic activity of the fraction added with no heavy metal as 100%.
The effects of heavy metal on the enzymes of the present invention were determined by: mixing 5 μl of a reaction solution (200 mM Tris buffer (pH 8.0), 2% of NADPH, 1% of scyllo-inosose, and 2 mM of a heavy metal) with 5 μl of an enzyme solution; and allowing the mixture to react at 36° C. for 30 min. After the reaction, 500 μl of water was immediately added thereto, and the absorbance at 340 nm was measured. From the blank value of a test solution prepared by using water instead of the enzyme solution, the decrease in the absorbance at 340 nm was measured. The enzyme solution was diluted as required. CaCl2, CoCl2, ZnSO4, MgSO4, SnCl2, NiCl2, and MnSO4 were used as metallic salts. The activity of the no addition group was defined as 100%, and the relative activities were compared. […] Most of the enzymes were inhibited in the presence of Zn^2+ ion, in contrast, the enzyme derived from Bacillus subtilis 168 was activated in the presence of Zn^2+ ion.

[3] = Km values of scyllo-inositol dehydrogenase for scyllo-inosose (reciprocal plot); conditions: NADPH, pH 8.0, 36° C.
Experimental: The determination is carried out such that the Km value is calculated after reciprocal plot according to the general method.
After the reaction, […] of water was immediately added thereto, and the absorbance at 340 nm was measured. From the blank value of a test solution prepared by using water instead of the enzyme solution, the decrease in the absorbance at 340 nm was measured. The enzyme solution was diluted as required. The Km values were calculated by the reciprocal plot.

[4] = Enzyme reaction product of scyllo-inosose reduction measured by HPLC; conditions: for share of scyllo-inositol in the product of scyllo-inosose reduction: 10 mg scyllo-inosose, 40 mg NADPH, 10 U enzyme, 36° C., 4 hours, myo-inositol not detected; for Reduction reaction product: SIS: scyllo-inosose, SI: scyllo-inositol
Experimental: Meanwhile, the enzyme reaction product was measured as follows: 10 mg of scyllo-inosose, 40 mg of NADPH, and 10 U of the enzyme were allowed to react in 1.0 ml of 100 mM Tris buffer (pH 8.0) at 36° C. for 4 hours, and a heat treatment was performed at 80° C. for 10 min, followed by cooling. Then, 100 μl of a strong base cation exchange resin, 100 μl of a strong acid anion exchange resin, and 10 mg of activated carbon were added, and the mixture was stirred and centrifuged. Then, the supernatant was diluted 2-fold, and measurement was performed by HPLC (Shodex Asahipak NH2P-50 4E Φ 4.6×250 mm: Shodex) using an RI detector under the condition of a column temperature of 40° C. and a mobile phase flow rate of 1.5 ml (80% acetonitrile). […] Meanwhile, the sequence of the ydgJ gene is shown in SEQ ID NO: 1, and the amino acid sequence corresponding thereto is shown in SEQ ID NO: 2.
Meanwhile, enzyme reaction product was measured as follows: 10 mg of scyllo-inosose, 40 mg of NADPH, and 10 U of the enzyme were allowed to react in 1.0 ml of 100 mM Tris buffer (pH 8.0) at 36° C. for 4 hours, and a heat treatment was performed at 80° C. for 10 min, followed by cooling. Then, 100 μl of a strong base cation exchange resin, 100 μl of a strong acid anion exchange resin, and 10 mg of activated carbon were added, and the mixture was stirred and centrifuged. Then, the supernatant was diluted 2-fold, and measurement was performed by HPLC (Shodex Asahipak NH2P-50 4E Φ 4.6×250 mm: Shodex) using an RI detector under conditions of a column temperature of 40° C. and a mobile phase flow rate of 1.5 ml (80% acetonitrile).

[5] = Substrate specificity of scyllo-inositol dehydrogenase (relative activity of oxidation, absorbance at 545 nm); conditions: relative to reactivity to scyllo-inositol, NADP^+, pH 8.0, 25° C.
Experimental: Examples of an inositol isomer include scyllo-inositol (SI), myo-inositol (MI), D-chiro-inositol (DCI), L-chiro-inositol (LCI), epi-inositol (EI), muco-inositol (MuI), allo-inositol (AI), and neo-inositol (NI).
The inositol isomers include scyllo-inositol (SI), myo-inositol (MI), D-chiro-inositol (DCI), L-chiro-inositol (LCI), epi-inositol (EI), muco-inositol (MuI), allo-inositol (AI), and neo-inositol (NI).
The reaction rate was calculated from the absorbance increments at the respective times.

Molecule	Optimum pH [1]	Heavy metal effects: activation [2]	Heavy metal effects: strong inhibition [2]	Km [3] [mM]	share of scyllo-inositol in the product of scyllo-inosose reduction [4] [%]	Reduction reaction product [4]	Substrate specific Relative activity (20 to 70%) [5]	Substrate specific Relative activity (70% or more) [5]	Substrate specific Relative activity (less than 20%) [5]	Heavy metal effects: activation ([2]; listed as enzyme derived from Bacillus subtilis 168)
C58 Atu3234 gene: recombinant scyllo-inositol dehydrogenase, Atu3234 gene product of Agrobacterium tumefaciens C58 ATCC33970, SEQ ID NO: 6 (protein, Agrobacterium tumefacience) MAIEGKTTDVANKRIRLGMVGGGSGAFIGGVHRMAARLDNRFDLVAGALSSTPEKSLASGRELGLDSERCYGSFEEMAEKEALREDGIEAVAIVTPNHVHYPAAKAFLERGIHVICDKPLTSNLEDAKKLKDVADKADALFILTHNYTGYPMVRHARELVEAGALGNIRLVQMEYPQDWLTEAVEQTGAKQAVWRTDPAQSGVGGSTGDIGTHAYNLGCFISGLEADELAADVHTFVEGRRLDDNAHVMMRFKPKGGKQPARGMLWCSQVAVGHENGLKIRLYGDKAGLEWTQADPNYLWFTKLGEPKQLITRGGAGAGAAAARVTRIPSGHPEGYLEAFATIYTEAAHAIEARRTGSALDKAVIYPTVDDGVKGVAFVTACIESGKKNGGWVKL	pH 7.0-8.5	Co, Mn, Ca	Sn, Zn	2.6	100	Only SIS → SI	MuI	SI, MI, DCI, EI, LCI	AI, NI	–
ydgJ gene: recombinant scyllo-inositol dehydrogenase, ydgJ gene product of Escherichia coli K12 ATCC10798, SEQ ID NO: 2 (protein, listed as Escherichia coli) MSDNIRVGLIGYGYASKTFHAPLIAGTPGQELAVISSSDETKVKADWPTVTVVSEPKHLFNDPNIDLIVIPTPNDTHFPLAKAALEAGKHVVVDKPFTVTLSQARELDALAKSLGRVLSVFHNRRWDSDFLTLKGLLAEGVLGEVAYFESHFDRFRPQVRDRWREQGGPGSGIWYDLAPHLLDQAITLFGLPVSMTVDLAQLRPGAQSTDYFHAILSYPQRRVILHGTMLAAAESARYIVHGSRGSYVKYGLDPQEERLKNGERLPQEDWGYDMRDGVLTRVEGEERVEETLLTVPGNYPAYYAAIRDALNGDGENPVPASQAIQVMELIELGIESAKHRATLCLA	pH 7.5-9.0	Co	Sn, Zn	3.9	100	Only SIS → SI	LCI, EI, MuI	SI, MI, DCI	AI, NI	–
C58 Atu4375 gene: recombinant scyllo-inositol dehydrogenase, Atu4375 gene product of Agrobacterium tumefaciens C58 ATCC33970, SEQ ID NO: 4 (protein, Agrobacterium tumefacience) MSSATKKFDSRRIRLGMVGGGQGAFIGAVHRIAARLDDRYELVAGALSSDPARAAASATLLGIAPERSYASFEDMAATEAGREDGIEAVAIVTPNHLHFAPSKAFLEAGIHVICDKPVTATLEEAKALAGIVRASDSLFVLTHNYTGYAMLRQMREMIAEGAIGKLRHVQAEYAQDWLTEAVEKTGAKGAEWRTDPSRSGAGGAIGDIGTHAFNAAAFVTGEIPSSLYADLTSFVPGRQLDDSANILLRYDSGAKGMLWASQIAVGNENALSLRVYGDKGGLEWHHRVPDELWFTPYGEPKRLITRNGAGAGAAANRVSRVPSGHPEGYLEGFATIYREAADAIIAKREGETAAGEVIYPGMEDGLAGLAFIDAAVRSSQTSTWVGIDI	pH 6.5-8.5	Co, Mn	Sn, Zn	9.2	100	Only SIS → SI	LCI, MuI	SI, MI, DCI, EI	AI, NI	–
BG14057 gene: recombinant scyllo-inositol dehydrogenase, BG14057 gene product of Bacillus subtilis 168 ATCC23857, SEQ ID NO: 8 (protein, listed as Bacillus subtilis) MITLLKGRRKVDTIKVGILGYGLSGSVFHGPLLDVLDEYQISKIMTSRTEEVKRDFPDAEVVHELEEITNDPAIELVIVTTPSGLHYEHTMACIQAGKHVVMEKPMTATAEEGETLKRAADEKGVLLSVYHNRRWDNDFLTIKKLISEGSLEDINTYQVSYNRYRPEVQARWREKEGTATGTLYDLGSHIIDQTLHLFGMPKAVTANVMAQRENAETVDYFHLTLDYGKLQAILYGGSIVPANGPRYQIHGKDSSFIKYGIDGQEDALRAGRKPEDDSWGADVPEFYGKLTTIRGSDKKTETIPSVNGSYLTYYRKIAESIREGAALPVTAEEGINVIRIIEAAMESSKEKRTIMLEH	pH 7.0-8.5	Co, Mn, Zn	Sn	3.5	100	Only SIS → SI	DCI, EI, AI, NI	SI, MI	LCI, MuI	Zn^2+ ion
